Target: purified full-length human BACE with six C-terminal His residues, expressed in Sf9 insect cells (human) (UniProt P56817)
Experiment: competitive radioligand binding assay, cholic acid against Tween-20 in the binding buffer

purified full-length human BACE with six C-terminal His residues, expressed in Sf9 insect cells (human), sequence (P56817 other isoform, or with tags, fused parts or gaps limits assumed): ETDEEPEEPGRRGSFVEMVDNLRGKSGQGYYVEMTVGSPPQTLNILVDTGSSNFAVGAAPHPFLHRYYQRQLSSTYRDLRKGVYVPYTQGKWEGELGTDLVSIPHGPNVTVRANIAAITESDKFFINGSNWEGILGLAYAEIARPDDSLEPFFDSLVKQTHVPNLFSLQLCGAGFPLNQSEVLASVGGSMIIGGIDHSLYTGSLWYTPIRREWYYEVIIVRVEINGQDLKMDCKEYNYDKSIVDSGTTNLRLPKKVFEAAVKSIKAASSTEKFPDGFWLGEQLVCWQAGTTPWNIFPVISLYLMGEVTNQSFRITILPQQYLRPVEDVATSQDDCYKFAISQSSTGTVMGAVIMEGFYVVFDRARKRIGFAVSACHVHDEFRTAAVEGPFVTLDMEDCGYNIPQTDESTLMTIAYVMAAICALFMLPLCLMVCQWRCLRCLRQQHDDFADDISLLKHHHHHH

fold reduction of IC-50 with cholic acid compared to Tween-20: 3 to 4 times
Substance: peptide H-4848 (Bachem), described in Nature, 1999, 402, 537

From patent publication US20030125257A1, “Assay for identifying beta secretase inhibitors” (priority 2001, published 2003)
